According to article PMC3658131:

Assays:
Assay in all cases: ELISA
[1] = target: Bd-cys dimer (affinity-purified cysteine-terminated B-domain, largely dimers linked by a disulfide bond), unlabeled (Staphylococcus aureus)
[2] = target: FL-labeled Bd-cys dimer (disulfide-linked dimer of cysteine-terminated B-domain labelled with FITC) (Staphylococcus aureus)
[3] = target: Staphylococcus aureus protein A (SpA), wild type, full-length (Staphylococcus aureus) (UniProt P02976)
UniProt P02976, sequence (P02976 37-485): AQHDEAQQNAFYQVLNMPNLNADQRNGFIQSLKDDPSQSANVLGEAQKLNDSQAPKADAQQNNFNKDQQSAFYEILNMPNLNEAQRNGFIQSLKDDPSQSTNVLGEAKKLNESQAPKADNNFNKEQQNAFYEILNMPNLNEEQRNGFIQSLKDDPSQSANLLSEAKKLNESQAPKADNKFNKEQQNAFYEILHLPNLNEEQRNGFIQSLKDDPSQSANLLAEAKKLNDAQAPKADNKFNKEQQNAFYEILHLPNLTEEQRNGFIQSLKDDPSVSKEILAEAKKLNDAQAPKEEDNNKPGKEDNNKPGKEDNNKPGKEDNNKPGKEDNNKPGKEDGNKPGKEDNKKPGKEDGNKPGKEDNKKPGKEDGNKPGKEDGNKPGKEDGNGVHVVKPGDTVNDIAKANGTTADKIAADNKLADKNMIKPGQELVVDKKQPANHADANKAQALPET

## HRP-conjugated guinea pig IgG (antibody)
[1]
  net absorbance at 405 nm (net absorbance (405 nm)): 0.85
[2]
  net absorbance at 405 nm (net absorbance (405 nm)): 0.16
[3]
  net absorbance at 405 nm (net absorbance (405 nm)): 0.84

## HRP-conjugated rabbit IgG (antibody)
[1]
  net absorbance at 405 nm (net absorbance (405 nm)): 0.98
[2]
  net absorbance at 405 nm (net absorbance (405 nm)): 0.21
[3]
  net absorbance at 405 nm (net absorbance (405 nm)): 1.25
